These results are taken from patent US7365239 (Stanford University, dated 2008).

For this experiment, the target named is T1, full-length mouse RabGEF1 expressed as GAL-4 activation domain fusion protein (mouse, UniProt Q9JM13 1-491).
T1 construct: mature; Yeast two-hybrid prey in pACT2; also called Rabex-5
Briefly: yeast two-hybrid, beta-galactosidase assays. The text has this:
FIG. 2A-2C. Homology of RabGEF1 with members of a Rab5 binding protein family and direct interaction of RabGEF1 with Ras. (a) Alignment of amino acid sequences of mouse RabGEF1 (SEC ID NO:5) with the Vps9p domains of Vps9p (SEC ID NO:6), Rin1, (SEC ID NO:7), and JC265(SEC ID NO:8). The Vps9p domains of Vps9p, RIN1, and JC265 and the proposed GBH motifs I(SEC ID NO:9), II(SEC ID NO:10), and III(SEC ID NO:11) illustrated here represent those previously described. Identical amino acids or conservative substitutions present in three or four proteins are shaded. […] Different segments of the mouse RabGEF1 protein (shaded areas are Vps9p domains; black areas are putative GBH motifs) were expressed as GAL-4 activation domain fusion proteins, whereas the mouse H-Ras and yeast Ras2p proteins were expressed as DNA-binding fusion proteins. Positive interactions were assessed with both a qualitative colony-lift β-galactosidase filter assay using X-gal as the substrate (Colony color) and a quantitative liquid culture β-galactosidase assay using chlorophenol red-β-D-galactopyranoside as the substrate (Relative β-Gal units). […] The pulled-down RabGEF1 was detected using an anti-RabGEF1 antibody. […]
Yeast two-hybrid assay. […] The entire open reading frame and different segments of the open reading frame of the mouse RabGEF1 cDNA were separately subcloned, in frame, into the pACT2 vector.

T1 sequence (Q9JM13 whole entry, the tested form may be a part): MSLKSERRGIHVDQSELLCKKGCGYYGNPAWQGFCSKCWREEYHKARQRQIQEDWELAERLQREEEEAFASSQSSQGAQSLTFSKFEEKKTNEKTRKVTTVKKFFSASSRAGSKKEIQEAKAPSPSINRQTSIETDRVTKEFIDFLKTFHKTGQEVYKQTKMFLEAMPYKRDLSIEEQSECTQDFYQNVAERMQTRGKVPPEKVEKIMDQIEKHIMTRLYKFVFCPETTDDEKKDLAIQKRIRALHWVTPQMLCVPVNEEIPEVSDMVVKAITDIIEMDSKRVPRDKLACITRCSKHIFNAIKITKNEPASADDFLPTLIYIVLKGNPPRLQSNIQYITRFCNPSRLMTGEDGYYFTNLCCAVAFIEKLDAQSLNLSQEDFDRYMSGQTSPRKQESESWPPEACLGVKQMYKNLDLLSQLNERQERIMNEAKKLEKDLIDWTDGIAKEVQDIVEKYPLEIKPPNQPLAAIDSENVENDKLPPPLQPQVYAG

B1: yeast Ras2p expressed as DNA-binding fusion protein (other, UniProt P04386 1-147, looked up)
chain: MKLLSSIEQACDICRLKKLKCSKEKPKCAKCLKNNWECRYSPKTKRSPLTRAHLTEVESRLERLEQLFLLIFPREDLDMILKMDSLQDIKALLTGLFVQDNVNKDAVTDRLASVETDMPLTLRQHRISATSSSEESSNKGQRQLTVSMPLNKSNIREYKLVVVGGGGVGKSALTIQLTQSHFVDEYDPTIEDSYRKQVVIDDEVSILDILDTAGQEEYSAMREQYMRNGEGFLLVYSITSKSSLDELMTYYQQILRVKDTDYVPIVVVGNKSDLENEKQVSYQDGLNMAKQMNAPFLETSAKQAINVEEAFYTLARLVRDEGGKYNKTLTENDNSKQTSQDTKGSGANSVPRNSGGHRKMSNAANGKNVNSSTTVVNARNASIESKTGLAGNQATNGKTQTDRTNIDNSTGQAGQANAQSANTVNNRVNNNSKAGQVSNAKQARKQQAAPGGNTSEASKSGSGGSCIIS
On to B1, for which the binding result was “no binding”.
